This note sets out measurements from the RNAGym collection of RNA variant scans (doi:10.1093/molbev/msab373).

The labels stand for the following.
B1: Azoarcus group I ribozyme (parent)
chain: GUGCCUUGCGCCGGGAAACCACGCAAGGGAUGGUGUCAAAUUCGGCGAAACCUAAGCGCCCGCCCGGGCGUAUGGCAACGCCGAGCCAAGCUUCGGCGCCUGCGCCGAUGAAGGUGUAGAGACUAGACGGCACCCACCUAAGGCAAACGCUAUGGUGAAGGCAUAGUCCAGGGAGUGGCGAAAGUCACACAAACCGG

Variants of B1 are the subject of the data set. In words: reverse-splicing fitness (ratio to wild type); higher = more active; in vitro selection; Mg2+ level not given. The gist of the method:
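An in vitro group I ribozyme library with randomized positions was T7-transcribed and gel-purified. In triplicate, 10 pmol RNA in EPPS pH 7.5 was reacted with 50 pmoles of a 30-nt RNA substrate for 1 h at 37 °C across several added MgCl2 levels (1–48 mM), then stopped with EDTA. Products were reverse transcribed from a substrate-complementary primer, PCR-amplified and sequenced (HiSeq 4000). Fitness is a variant's read proportion after selection over that before, normalised to wild type.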
For C82U A111G A120G A145C C169A U176C, the reverse-splicing fitness stood at 0.00572.

C82U A111G A120G A145C C169A U176A: the reverse-splicing fitness turned out to be 0.011.

On to C82U A111G A120G A145C C169A U176G, for which the reverse-splicing fitness amounted to 0.00366.

For the variant C82U A111G A120G A145G C150U, the reverse-splicing fitness came to 0.0132.

C82U A111G A120G A145G C150G: the reverse-splicing fitness is 0.00721.

For the variant C82U A111G A120G A145G C150A, the reverse-splicing fitness was 0.00878.

For C82U A111G A120G A145G C150A C169G U176A, the reverse-splicing fitness was determined as 0.0174.

As to C82U A111G A120G A145G C150A C169G U176C, the reverse-splicing fitness turned out to be 0.0228.

On to C82U A111G A120G A145G C150A C169G U176G, for which the reverse-splicing fitness amounted to 0.00482.

As for C82U A111G A120C A145U C150U U176G, the reverse-splicing fitness was found to be 0.00565.

Consider C82U A111G A120C A145U C150U U176A, for which the reverse-splicing fitness was determined as 0.0147.

Turning to C82U A111G A120C A145U C150U U176C, the reverse-splicing fitness stood at 0.0223.

For the variant C82U A111G A120G A145C C150A C169G U176G, the reverse-splicing fitness came out at 0.00465.

For C82U A111G A120G A145C C150A C169G U176C, the reverse-splicing fitness was 0.015.

Turning to C82U A111G A120G A145C C150A C169G U176A, the reverse-splicing fitness was found to be 0.023.

Turning to C82U A111G A120G A145G C150U U176G, the reverse-splicing fitness stood at 0.00622.

With C82U A111G A120G A145G C150U U176A, the reverse-splicing fitness turned out to be 0.00859.

As to C82U A111G A120G A145G C150U U176C, the reverse-splicing fitness was determined as 0.0166.

Take C82U A111G A120G A145C C150U C169A U176A: the reverse-splicing fitness was found to be 0.0104.

For C82U A111G A120G A145C C150U C169A U176G, the reverse-splicing fitness came to 0.00395.

Turning to C82U A111G A120G A145C C150U C169A U176C, the reverse-splicing fitness is 0.00548.

In the case of C82U A111G A120G A145G C150A U176A, the reverse-splicing fitness stood at 0.0088.

Turning to C82U A111G A120G A145G C150A U176C, the reverse-splicing fitness was determined as 0.0196.

Take C82U A111G A120G A145G C150A U176G: the reverse-splicing fitness worked out at 0.00593.

In the case of C82U A111G A120C A145U C150G C169G U176G, the reverse-splicing fitness worked out at 0.00386.

In the case of C82U A111G A120C A145U C150G C169G U176C, the reverse-splicing fitness is 0.00388.

On to C82U A111G A120C A145U C150G C169G U176A, for which the reverse-splicing fitness came to 0.0063.

For the variant C82U A111G A120G A145G C150G U176A, the reverse-splicing fitness was 0.00637.

Take C82U A111G A120G A145G C150G U176G: the reverse-splicing fitness was found to be 0.00546.

As for C82U A111G A120G A145G C150G U176C, the reverse-splicing fitness worked out at 0.00856.

On to C82U A111G A120G A145G C169G U176C, for which the reverse-splicing fitness was 0.0289.

Take C82U A111G A120G A145G C169G U176G: the reverse-splicing fitness came out at 0.00424.

Turning to C82U A111G A120G A145G C169G U176A, the reverse-splicing fitness was 0.0211.

On to C82U A111G A120C C169A U176A, for which the reverse-splicing fitness came to 0.014.

On to C82U A111G A120C C169A U176G, for which the reverse-splicing fitness is 0.00425.

On to C82U A111G A120C C169A U176C, for which the reverse-splicing fitness stood at 0.0132.

On to C82U A111G A120C A145U C150U C169G U176G, for which the reverse-splicing fitness was determined as 0.00414.

C82U A111G A120C A145U C150U C169G U176A: the reverse-splicing fitness was found to be 0.0133.

On to C82U A111G A120C A145U C150U C169G U176C, for which the reverse-splicing fitness stood at 0.0121.

With C82U A111G A120C C150U C169G U176G, the reverse-splicing fitness turned out to be 0.00447.

Take C82U A111G A120C C150U C169G U176C: the reverse-splicing fitness is 0.0156.

C82U A111G A120C C150U C169G U176A: the reverse-splicing fitness is 0.0205.

Regarding C82U A111G A120G A145C C150G C169G U176G, the reverse-splicing fitness stood at 0.00399.

With C82U A111G A120G A145C C150G C169G U176C, the reverse-splicing fitness was 0.00692.

C82U A111G A120G A145C C150G C169G U176A: the reverse-splicing fitness is 0.00868.

Take C82U A111G A120G A145G C150U C169G U176A: the reverse-splicing fitness is 0.014.

For the variant C82U A111G A120G A145G C150U C169G U176G, the reverse-splicing fitness turned out to be 0.00444.

On to C82U A111G A120G A145G C150U C169G U176C, for which the reverse-splicing fitness turned out to be 0.0168.

In the case of C82U A111G A120G A145C C150A C169U U176C, the reverse-splicing fitness was 0.00907.

As for C82U A111G A120G A145C C150A C169U U176A, the reverse-splicing fitness worked out at 0.0192.

Consider C82U A111G A120G A145C C150A C169U U176G, for which the reverse-splicing fitness came to 0.00373.

For the variant C82U A111G A120G A145G C169A U176C, the reverse-splicing fitness was 0.0277.

For C82U A111G A120G A145G C169A U176G, the reverse-splicing fitness is 0.00377.

On to C82U A111G A120G A145G C169A U176A, for which the reverse-splicing fitness came out at 0.0215.

In the case of C82U A111G A120G A145C C150G C169U U176A, the reverse-splicing fitness came out at 0.0136.

Regarding C82U A111G A120G A145C C150G C169U U176C, the reverse-splicing fitness was determined as 0.0102.

C82U A111G A120G A145C C150G C169U U176G: the reverse-splicing fitness came to 0.00462.

In the case of C82U A111G A120G A145U C169U U176C, the reverse-splicing fitness is 0.0133.

On to C82U A111G A120G A145U C169U U176A, for which the reverse-splicing fitness is 0.0208.

Turning to C82U A111G A120G A145U C169U U176G, the reverse-splicing fitness amounted to 0.00342.

Consider C82U A111G A120C A145U C150G U176G, for which the reverse-splicing fitness was determined as 0.00286.

Regarding C82U A111G A120C A145U C150G U176C, the reverse-splicing fitness stood at 0.00882.

For the variant C82U A111G A120C A145U C150G U176A, the reverse-splicing fitness is 0.00455.

For the variant C82U A111G A120G C150A C169A U176A, the reverse-splicing fitness amounted to 0.0173.

For the variant C82U A111G A120G C150A C169A U176G, the reverse-splicing fitness turned out to be 0.00577.

As to C82U A111G A120G C150A C169A U176C, the reverse-splicing fitness was determined as 0.0192.

In the case of C82U A111G A120C C150U U176G, the reverse-splicing fitness was 0.00651.

As to C82U A111G A120C C150U U176A, the reverse-splicing fitness is 0.0148.

Take C82U A111G A120C C150U U176C: the reverse-splicing fitness was 0.0218.

In the case of C82U A111G A120C C150G C169U U176C, the reverse-splicing fitness is 0.0138.

C82U A111G A120C C150G C169U U176A: the reverse-splicing fitness was 0.00617.

Take C82U A111G A120C C150G C169U U176G: the reverse-splicing fitness worked out at 0.00489.

In the case of C82U A111G A120G A145U C150U C169G U176C, the reverse-splicing fitness was determined as 0.0132.

Turning to C82U A111G A120G A145U C150U C169G U176G, the reverse-splicing fitness is 0.00409.

Regarding C82U A111G A120G A145U C150U C169G U176A, the reverse-splicing fitness came out at 0.0116.

Regarding C82U A111G A120G A145U C150A C169A U176G, the reverse-splicing fitness was 0.00458.

On to C82U A111G A120G A145U C150A C169A U176A, for which the reverse-splicing fitness was 0.013.

As to C82U A111G A120G A145U C150A C169A U176C, the reverse-splicing fitness amounted to 0.00962.

On to C82U A111G A120G A145G C150G C169G U176G, for which the reverse-splicing fitness was 0.00529.

For the variant C82U A111G A120G A145G C150G C169G U176C, the reverse-splicing fitness was determined as 0.011.

On to C82U A111G A120G A145G C150G C169G U176A, for which the reverse-splicing fitness is 0.00945.

On to C82U A111G A120G A145C, for which the reverse-splicing fitness was 0.0135.

As to C82U A111G A120G A145U, the reverse-splicing fitness stood at 0.0174.

In the case of C82U A111G A120G A145G, the reverse-splicing fitness worked out at 0.0164.
